In patent USRE40831:

Target: hepatitis B virus surface antigen, ad antigen (Chemicon Cat. No. AG 850) (hepatitis B virus)
Test: competitive ELISA

B1: Ab19.79.5, human monoclonal antibody secreted by hybridoma cell line 19.79.5 (ECACC Accession No. 96052168) (antibody, human IgG1, V domains shown)
VH: QVQLVESGGGVVQPGGSLRLSCAPSGFVFRSYGMHWVRQTPGKGLEWVSLIWHDGSNRFYADSVKGRFTISRDNSKNTLYLQMNSLRAEDTAMYFCARERLIAAPAAFDLWGQGTLVTVSS
VL: SYVLTQPPSVSVAPGKTARISCGGNNIGTKNVHWYQQKPGQAPVLVVYADSDRPSGIPERFSGSNSGNTATLTISRVEVGDEADYYCQVWDSVSYHVVFGGGTTLTVLG
How did the Kd turn out when B1 was run?
The Kd was 1.3 nM.
